The test addresses T1, recombinant mouse sortilin (mouse, UniProt Q6PHU5 74-754).
T1 chain: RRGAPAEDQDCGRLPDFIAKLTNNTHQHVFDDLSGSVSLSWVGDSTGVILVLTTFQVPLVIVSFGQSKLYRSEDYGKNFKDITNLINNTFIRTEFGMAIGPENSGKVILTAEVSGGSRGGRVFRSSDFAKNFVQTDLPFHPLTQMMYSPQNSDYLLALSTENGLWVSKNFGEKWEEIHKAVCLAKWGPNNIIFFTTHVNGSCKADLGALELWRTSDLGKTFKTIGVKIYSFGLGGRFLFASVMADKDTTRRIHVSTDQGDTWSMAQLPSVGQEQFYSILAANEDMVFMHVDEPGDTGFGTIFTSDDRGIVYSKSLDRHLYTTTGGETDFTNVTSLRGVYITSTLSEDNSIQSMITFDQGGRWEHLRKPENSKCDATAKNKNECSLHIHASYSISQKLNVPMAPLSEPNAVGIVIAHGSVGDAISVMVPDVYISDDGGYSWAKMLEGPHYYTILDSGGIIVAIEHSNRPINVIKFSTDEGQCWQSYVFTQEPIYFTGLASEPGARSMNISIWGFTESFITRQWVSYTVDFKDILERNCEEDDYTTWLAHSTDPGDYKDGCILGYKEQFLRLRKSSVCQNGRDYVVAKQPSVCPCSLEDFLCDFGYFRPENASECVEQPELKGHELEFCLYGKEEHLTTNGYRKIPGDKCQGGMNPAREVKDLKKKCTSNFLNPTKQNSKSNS
The test can be described thus: SPR. (In SPR one partner is held on a chip, and binding of the other changes the refractive index at the surface.)

As usually defined, the Kd is the constant that tells how readily two partners part at equilibrium.

B1: recombinant IFN-γ (ligand)
chain: HGTVIESLESLNNYFNSSGIDVEEKSLFLDIWRNWQKDGDMKILQSQIISFYLRLFEVLKDNQAISNNISVIESHLITTFFSNSKAKKDAFMSIAKFEVNNPQVQRQAFNELIRVVHQLLPESSLRKRKRSRC
As to B1, the equilibrium dissociation constant (Kd) came out at 2600 nM.

B2: recombinant IL-17A (ligand)
chain: AAIIPQSSACPNTEAKDFLQNVKVNLKVFNSLGAKVSSRRPSDYLNRSTSPWTLHRNEDPDRYPSVIWEAQCRHQRCVNAEGKLDHHMNSVLIQQEILVLKREPESCPFTFRVEKMLVGVGCTCVASIVRQAA
On to B2, for which the Kd worked out at 335 nM.

B3: recombinant IL-10 (ligand)
chain: SRGQYSREDNNCTHFPVGQSHMLLELRTAFSQVKTFFQTKDQLDNILLTDSLMQDFKGYLGCQALSEMIQFYLVEVMPQAEKHGPEIKEHLNSLGEKLKTLRMRLRRCHRFLPCENKSKAVEQVKSDFNKLQDQGVYKAMNEFDIFINCIEAYMMIKMKS
As for B3, the equilibrium dissociation constant (Kd) is 287 nM.

B4: GST-fused mouse IFN-α (ligand)
chain: CDLPHTYNLRNKRALKVLAQMRRLPFLSCLKDRQDFGFPLEKVDNQQIQKAQAIPVLRDLTQQTLNLFTSKASSAAWNATLLDSFCNDLHQQLNDLQTCLMQQVGVQEPPLTQEDALLAVRKYFHRITVYLREKKHSPCAWEVVRAEVWRALSSSVNLLPRLSEEKE
Regarding B4, the Kd turned out to be 550 nM.

B5: recombinant IL-12 (complex)
chain 1: RVIPVSGPARCLSQSRNLLKTTDDMVKTAREKLKHYSCTAEDIDHEDITRDQTSTLKTCLPLELHKNESCLATRETSSTTRGSCLPPQKTSLMMTLCLGSIYEDLKMYQTEFQAINAALQNHNHQQIILDKGMLVAIDELMQSLNHNGETLRQKPPVGEADPYRVKMKLCILLHAFSTRVVTINRVMGYLSSA
chain 2: MWELEKDVYVVEVDWTPDAPGETVNLTCDTPEEDDITWTSDQRHGVIGSGKTLTITVKEFLDAGQYTCHKGGETLSHSHLLLHKKENGIWSTEILKNFKNKTFLKCEAPNYSGRFTCSWLVQRNMDLKFNIKSSSSSPDSRAVTCGMASLSAEKVTLDQRDYEKYSVSCQEDVTCPTAEETLPIELALEARQQNKYENYSTSFFIRDIIKPDPPKNLQMKPLKNSQVEVSWEYPDSWSTPHSYFSLKFFVRIQRKKEKMKETEEGCNQKGAFLVEKTSTEVQCKGGNVCVQAQDRYYNSSCSKWACVPCRVRS
In the case of B5, the Kd stood at 13.6 nM.

B6: recombinant IL-6 (ligand)
chain: FPTSQVRRGDFTEDTTPNRPVYTTSQVGGLITHVLWEIVEMRKELCNGNSDCMNNDDALAENNLKLPEIQRNDGCYQTGYNQEICLLKISSGLLEYHSYLEYMKNNLKDNKKDKARVLQRDTETLIHIFNQEVKDLHKIVLPTPISNALLTDKLESQKEWLRTKTIQFILKSLEEFLKVTLRSTRQT
For B6, the dissociation constant Kd worked out at 1100 nM.
